Laboratory results published in patent US20140072983A1.

Columns and labels:
[1] = target: biotin-CCR4 peptide conjugate (human); test: ECL (MSD) bridging assay, biotin-CCR4 peptide on a streptavidin plate, His-CD16a detection; 0% PHS (assay buffer)
[2] = target: biotin-CCR4 peptide conjugate (human); test: ECL (MSD) bridging assay, biotin-CCR4 peptide on a streptavidin plate, His-CD16a detection; 5% pooled human serum
[3] = target: biotin-CCR4 peptide conjugate (human); test: ECL (MSD) bridging assay, biotin-CCR4 peptide on a streptavidin plate, His-CD16a detection; 20% pooled human serum

Measured: EC50 (read off the curve)

Sequence of biotin-CCR4 peptide conjugate (human) (peptide, as listed by the source): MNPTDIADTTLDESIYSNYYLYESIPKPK

KW-0761 (antibody)
0.4 µg/mL: [1] | [2] | [3]
